Measurements from article PMC3114107.
Like-named read-outs stand apart in the source and are kept apart here.

Experiments:
[Lys]plasminogen (human) [1] = steady-state kinetics of Pg activation
[2] = target: [5F]FFR-[Lys]Pg ([Lys]plasminogen inactivated with ATA-FFR-CH2Cl and labeled with 5-(iodoacetamido)fluorescein) (human); experiment: other fluorescence titration
[3] = target: [5F]FFR-[Lys]Pg ([Lys]plasminogen inactivated with ATA-FFR-CH2Cl and labeled with 5-(iodoacetamido)fluorescein) (human); experiment: other fluorescence titration; remark: listed apart in the source
[Lys]plasminogen (human) [4] = steady-state kinetics of Pg activation; remark: listed apart in the source

Sequence of [Lys]plasminogen (human) (P00747 whole entry): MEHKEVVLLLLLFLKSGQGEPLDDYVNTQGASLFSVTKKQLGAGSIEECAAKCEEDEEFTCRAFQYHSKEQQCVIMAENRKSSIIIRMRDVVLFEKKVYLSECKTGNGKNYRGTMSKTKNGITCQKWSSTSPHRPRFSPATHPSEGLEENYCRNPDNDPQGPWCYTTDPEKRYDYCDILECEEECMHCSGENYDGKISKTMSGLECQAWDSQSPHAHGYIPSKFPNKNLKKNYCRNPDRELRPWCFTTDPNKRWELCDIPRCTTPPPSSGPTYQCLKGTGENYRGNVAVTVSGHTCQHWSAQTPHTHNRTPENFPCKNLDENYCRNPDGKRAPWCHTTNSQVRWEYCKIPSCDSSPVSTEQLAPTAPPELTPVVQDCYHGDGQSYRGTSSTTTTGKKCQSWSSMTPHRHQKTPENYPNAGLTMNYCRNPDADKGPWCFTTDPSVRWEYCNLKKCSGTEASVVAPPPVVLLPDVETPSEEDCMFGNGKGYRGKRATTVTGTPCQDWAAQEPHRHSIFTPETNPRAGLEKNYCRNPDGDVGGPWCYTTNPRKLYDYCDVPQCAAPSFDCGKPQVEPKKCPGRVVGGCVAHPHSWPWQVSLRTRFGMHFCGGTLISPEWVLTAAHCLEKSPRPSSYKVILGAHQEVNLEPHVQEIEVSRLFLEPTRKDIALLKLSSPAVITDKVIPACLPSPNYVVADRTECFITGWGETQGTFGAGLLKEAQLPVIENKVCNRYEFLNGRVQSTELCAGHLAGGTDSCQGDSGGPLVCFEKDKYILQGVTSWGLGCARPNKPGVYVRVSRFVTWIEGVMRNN
Sequence of [5F]FFR-[Lys]Pg ([Lys]plasminogen inactivated with ATA-FFR-CH2Cl and labeled with 5-(iodoacetamido)fluorescein) (human) (P00747 whole entry): as above

Substance	Kd ([Lys]plasminogen (human) [1])	Kd [2]	Kd [3]	Kd ([Lys]plasminogen (human) [4])
Native streptokinase (from UniProt P00779 27-440) (natural protein)	1.6 nM			
SKΔ(R253-L260)ΔK414-His6 (TEVp-cleaved His6-(TEVp cleavage site)-SKΔ(R253-L260)ΔK414-His6) (from UniProt P00779 27-440) (natural protein)	28 nM	820 nM	470 nM	
wtSK-His6 (TEVp-cleaved His6-wtSK-His6) (from UniProt P00779 27-440) (natural protein)		290 nM	240 nM	32 nM
SKΔ(R253-L260) (from UniProt P00779 27-440) (natural protein)				78 nM
recombinant wild-type streptokinase (from UniProt P00779 27-440) (natural protein)	1.6 nM			33 nM
